Measurements: the supplement of paper PMC10567573
± gives the standard deviation.

Assay: protein stability index of a GFP-peptide fusion (GPS, HEK-293T) (PSI 1-6); higher = more stable
[1] = treatment: DMSO, c terminus: a fixed tail appended
[2] = treatment: MLN4924 1 uM, 8 h, c terminus: a fixed tail appended
[3] = treatment: DMSO, c terminus: native
[4] = treatment: MLN4924 1 uM, 8 h, c terminus: native
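Note: 24-mer peptide tiles fused after GFP, lentivirally expressed, FACS-sorted into six equal bins by GFP/DsRed ratio, decoded by Illumina sequencing, PSI is the read-weighted mean bin number.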

Sequence | protein stability index [1] | protein stability index [2] | protein stability index [3] | protein stability index [4]
KASNSIISCFNNAPPAKLACPVCS [FAN1] | 2.92 ± 0.15 | 3.1 ± 0.4 | – | –
KDHSSSRPSSPRPQKASPNGSISS [BTBD10] | 5.1 ± 0.42 | 4.71 ± 0.97 | – | –
KDLQKEQKTLQVKCQHYKKKRTEQ [CEP70] | 4.92 ± 0.31 | 4.87 ± 0.032 | – | –
KEEGLPEEEPSHVTGREGFPTDAP [ZNF8] | 5.45 ± 0.23 | 5.57 ± 0.3 | – | –
KEEKQRRRCKPKKPTRRDASPESP [GNAS] | 5.43 ± 0.18 | 5.47 ± 0.11 | – | –
KEENEAESDVKHRTRDYKKTSLAP [PRIM1] | 5.37 ± 0.23 | 5.37 ± 0.41 | – | –
KEGDCAPEEKIWEELSVLEVFEGR [MAGEA6] | 4.96 ± 0.16 | 4.87 ± 0.47 | – | –
KELRDGGEQDTWAGEGAEALARNL [NFE2L1] | 5.26 ± 0.25 | 5.36 ± 0.27 | – | –
KFENLCKLMKEILDKKVEKVTISN [HSP90AB1] | – | 2.75 ± 0.38 | – | –
KGSFGKVCIVQKNDTKKMYAMKYM [STK32A] | 2.49 ± 0.41 | 2.41 ± 0.23 | – | –
KHYRFTHAEIIAWIRICRPGSIIG [CDC14A] | 2.55 ± 0.15 | 2.83 ± 0.67 | – | –
KIQLRLAGQKRKHSEGRVEVYYDG [LOXL2] | 3.09 ± 0.33 | 3.88 ± 0.67 | – | –
KISKQFVAPADVRRLLSYCKGRDH [ZSWIM9] | 2.49 ± 0.32 | 2.81 ± 0.27 | – | –
KKHAAYAWPFYKPVDAEALELHDY [BRD3] | 2.97 ± 0.39 | 2.96 ± 0.38 | – | –
KLEKSIDSYYRLVIHRALDREQVS [PCDHGA10] | 2.55 ± 1 | 2.48 ± 0.84 | – | –
KLQYQLRNVRERIAKNLVEKGILT [GOLPH3L] | 2.17 ± 0.16 | 2.28 ± 0.19 | – | –
KLSETFLQIYQYVPKDQRLQAIKA [DLC1] | 2.12 ± 0.38 | 2.28 ± 0.44 | – | –
KNKPKKMGHIKPDLIDVDLIRGST [PHTF1] | 3.8 ± 0.28 | 4.04 ± 0.2 | – | –
KPLLGSAVLGLLLVLAAVVAWCYY [MYORG] | 2.11 ± 0.4 | 2.25 ± 0.24 | – | –
KQIVSAVAHCHQSAIVLGDLKLRK [TRIB1] | 2.77 ± 0.18 | 2.72 ± 0.27 | – | –
KQPRKKRGRYRQYNSEILEEAISV [LCOR] | 3.92 ± 0.16 | 3.98 ± 0.13 | – | –
KRGPSSRSGGPPPKKSAPSAVARS [RBMY1A1] | 4.47 ± 0.12 | 4.78 ± 0.39 | – | –

Sequence | protein stability index [1] | protein stability index [2] | protein stability index [3] | protein stability index [4]
KRIKVPDYKDRSVFGVPLTVNVQR [DLC1] | 3.02 ± 0.42 | 3.09 ± 0.35 | – | –
KRYESHPVCADLQAKILQCYRENT [CHCHD3] | 3.18 ± 0.23 | 3.55 ± 0.26 | – | –
KSLDNMPNDEHWKALSRKSTSFRV [FBXO33] | 3.4 ± 0.11 | 3.56 ± 0.21 | – | –
KTQIVCKHFLEAIENNKYGWFWVC [ZC3H15] | 2.62 ± 0.52 | 3.09 ± 0.54 | – | –
KTSVEKANAQIQILTRSWEEVSTL [CD207] | 3.48 ± 0.14 | 3.77 ± 0.26 | – | –
KVLRRWVDEEWPKRERGDPSRHF [EDARADD] | – | – | 3.21 ± 0.43 | 3.42 ± 0.2
KVMIFKSSYSLSDMVSNIELPTRI [MIA2] | 1.88 ± 0.56 | 2.17 ± 0.12 | – | –
KVRQLERDNAELENLIRERSQQQE [KRT33B] | 5.11 ± 0.3 | 5.13 ± 0.28 | – | –
KVVECLDHARGKSQVALKIIRNVG [CLK3] | 2.24 ± 0.21 | 2.22 ± 0.36 | – | –
KYFGCELGAQTQFDVKNDRYIVNG [EIF5] | 3.08 ± 0.35 | 3.27 ± 0.26 | – | –
KYIHRMMQIEFIKQGSMNFRFIPV [TRAF3IP2] | 3.659 ± 0.005 | 2.21 ± 1.1 | – | –
KYVVSGFDVDHGICIMDAENITTV [WDR88] | 2.28 ± 0.32 | 2.25 ± 0.25 | – | –
LAEAKYYLVQGLVEECQAALQNKD [KCTD10] | 3.24 ± 0.17 | 3.38 ± 0.29 | – | –
LALLNLACMMTITFLPYTFSLMVT [TMEM175] | 3.27 ± 0.32 | 3.38 ± 0.27 | – | –
LALVTLLSFATRFHRLDEPPHICW [POMT2] | 3.25 ± 0.61 | 3.19 ± 0.22 | – | –
LAPVPTHSTVSELSRSPVATATSC [DUSP5] | 4.24 ± 0.3 | 4.17 ± 0.15 | – | –
LAQLLDTLLAIGTKLPENQAIQMR [INTS4] | 3.12 ± 0.73 | 2.76 ± 0.5 | – | –
LASGRIILILEGGYNLTSISESMA [HDAC6] | 2.63 ± 0.14 | 2.82 ± 0.79 | – | –
LATLDPLALDREPPPHLLPEKHQV [WDR88] | 4.06 ± 0.22 | 4.24 ± 0.16 | – | –
LCAYGFFASLRPSEPFLTPYLLGP [SLC19A2] | 2.94 ± 0.32 | 2.9 ± 0.56 | – | –
LCCEWLRPEKHTKEQILEFLVLEQ [ZNF232] | 2.23 ± 0.31 | 2.24 ± 0.27 | – | –
LCKNCFYLSNARPDNWFCYPCIPN [ZMYND11] | 2.2 ± 0.29 | 2.23 ± 0.053 | – | –

Sequence | protein stability index [1] | protein stability index [2] | protein stability index [3] | protein stability index [4]
LCMDWCKDKRRIVSSSQDGKVIVW [GNB5] | 2.17 ± 0.14 | 2.33 ± 0.16 | – | –
LDMELGPSQGQETNEVCEQAGGGA [ADAMTSL2] | 5.33 ± 0.52 | 5.27 ± 0.54 | – | –
LDNSRSILKRRYYRQHCTLELGSY [CTDNEP1] | 2.34 ± 0.45 | 2.42 ± 0.31 | – | –
LDPDTMHARLRLSADRLTVRCGLL [TRIM14] | 2.51 ± 0.16 | 2.48 ± 0.25 | – | –
LDSIIDDRVILSSSTSCLMPSKLF [CRYL1] | 2.71 ± 0.38 | 2.77 ± 0.21 | – | –
LEDFFVMSDYRGFGIGSEILKNLS [SAT1] | 2.38 ± 0.14 | 2.28 ± 0.44 | – | –
LEDSTMGSVADTVARVLRGCLENM [PLK2] | 2.79 ± 0.32 | 2.96 ± 0.38 | – | –
LEGKTFYSKKDRPLCKSHAFSHV [PDLIM7] | – | – | 3.36 ± 0.44 | 3.83 ± 0.75
LEISDQEVLEWYTAKDFIVGKSLT [EFHC1] | 3.06 ± 0.22 | 2.92 ± 0.3 | – | –
LEIVGREGVSLTAVLTTHHHWDHA [HAGHL] | 2.59 ± 0.34 | 2.32 ± 0.44 | – | –
LELLSAPELKSLAKTFHLVNPNGQ [FAN1] | 2.74 ± 0.13 | 2.84 ± 0.095 | – | –
LETRFKIQQLLEPQQYMAFLPHHI [FBXO34] | 2.36 ± 0.49 | 2.27 ± 0.33 | – | –
LFILSTLVVDYIDEGRLVLEFSLL [SOAT1] | 3.28 ± 0.57 | 2.88 ± 0.96 | – | –
LGGRALMNCLPSNRTLWRLDLAGN [LRRC45] | 2.5 ± 0.41 | 2.32 ± 0.28 | – | –
LGPELIKESNANPIFMRKDTKMSF [DPCD] | 3.46 ± 0.084 | 3.43 ± 0.2 | – | –
LGSWLVPFAYLTVLDLSKSLSAAL [POMT2] | 3.19 ± 0.56 | 3.34 ± 0.37 | – | –
LHAELCQAGSSQGLSLCQFQNFSL [LPCAT4] | 2.42 ± 0.33 | 2.21 ± 0.13 | – | –
LHTAREFSEEDEEETTSQDWGTPR [RTN2] | 5.4 ± 0.27 | 5.46 ± 0.23 | – | –
LIDYKSYMDTKLLVARFLEQSSCT [FAM189A2] | 2.38 ± 0.091 | 2.25 ± 0.19 | – | –
LIVGLQGMDLNLEAEALAGTGLVL [HDAC6] | 2.91 ± 0.48 | 2.6 ± 0.62 | – | –
LKAEELLLKIHEVSTVSHADADCF [CASP6] | 3.03 ± 0.15 | 3.14 ± 0.28 | – | –
